# Measurements reported in paper PMC3880588.
# Changes are numbered by the printed parent chain.
# Legend:
# Experiment in all cases: EMSA
# [1] = tested on: T1, MBNL-N-M12 F36A;Y68A, Q9NR56-5; conditions: no stable complex up to 2 uM; EMSA: 10 mM HEPES pH 7.9, 3 mM MgCl2, 10 uM ZnCl2, 5% glycerol, 1 mM DTT, 20 ug/ml rRNA, 10 fmol RNA in 5 ul, 30 C 15 min, then heparin 5 min; 5% PAGE at 4 C …
# T1 sequence: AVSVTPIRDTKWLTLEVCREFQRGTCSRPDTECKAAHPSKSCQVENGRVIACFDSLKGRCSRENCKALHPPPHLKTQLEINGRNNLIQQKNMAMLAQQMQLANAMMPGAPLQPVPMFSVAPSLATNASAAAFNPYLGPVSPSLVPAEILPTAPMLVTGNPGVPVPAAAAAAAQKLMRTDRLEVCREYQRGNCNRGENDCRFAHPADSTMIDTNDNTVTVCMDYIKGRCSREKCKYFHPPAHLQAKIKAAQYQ
# [2] = tested on: T2, MBNL-N-M34 F202A;Y236A, Q9NR56-5; conditions: EMSA: 10 mM HEPES pH 7.9, 3 mM MgCl2, 10 uM ZnCl2, 5% glycerol, 1 mM DTT, 20 ug/ml rRNA, 10 fmol RNA in 5 ul, 30 C 15 min, then heparin 5 min; 5% PAGE at 4 C …
# T2 sequence: T1 sequence with A35F, A67Y, F201A, Y235A
# MBNL1-2-72, Q9NR56-5 = tested on: T3, MBNL1-2-72, Q9NR56-5; conditions: no binding at any concentration (up to 2000 nM); EMSA: 10 mM HEPES pH 7.9, 3 mM MgCl2, 10 uM ZnCl2, 5% glycerol, 1 mM DTT, 20 ug/ml rRNA, 10 fmol RNA in 5 ul, 30 C 15 min, then heparin 5 min; 5% PAGE at 4 C …
# T3 sequence: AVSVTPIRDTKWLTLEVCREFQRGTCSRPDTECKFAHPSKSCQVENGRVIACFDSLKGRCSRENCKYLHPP
Sequence,Kd [1] [nM],fold decrease in binding affinity vs WT (fold lower affinity than WT MBNL1-N) [2],"Kd (MBNL1-2-72, Q9NR56-5) [nM]"
GGGAGACAAGCUUGAGCUGGAUGCCGCCUCUGCUGCUGC [Tpm1 Dugc RNA],> 2000,20,> 2000
GGGAGACAAGCUUAAGUCUACGCACCCUCAACCCGCACCUUGCGGGAUCACGCUGCCUGCUGCACCCCACCCCCUUCCCCCUUCCUUCCCCCCACCCCCGUACUCCACUGCCAACUCCCAG [Tpm1 URE RNA],> 2000,20,> 2000
GGGAGACAAGCUUUGCAAACUGUUAAUCUCAACUAACUGCCGCUUAAAUAAUUAGUGCAGCUUUUAACUACUGGUUCUGUCCCAACUGGCUACUUGUGCCUAAAGCCCAAAGAAUU [Vldlr RNA],> 2000,20,> 2000
